Laboratory results reported in the supplement of paper PMC10126150.
± gives the standard deviation of the averaged measurements.

Tested on: ATP
Test: switch fluorescence ratio, 500 uM ATP over buffer (Cy3 cluster intensity, sum of 5 cycles each) (fold (ratio)); higher = stronger signal-on switching upon ATP binding; sequences stand for … in TCGTCGGCAGCGTCAGATGTGTATAAGAGACAGTTTTTTTTTTTTTTTTTTTTTTTTT…TC
Details: aptamer strand: ATP DNA aptamer (quencher-CACCTGGGGGAGTATTGCGGAGGAAGG + anchor), 100 nM annealed; ATP concentration: 500 uM
Procedure, shortened: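 Exposure to 500 uM ATP lasted 15 min at 22 °C before imaging, and a selection-buffer image was taken beforehand, for Cy3-labelled switching-strand clusters on a modified Illumina MiSeq flow-cell annealed to 100 nM quencher-labelled ATP aptamer. Five buffer/ATP cycles were run with NaOH stripping and re-annealing between them. The fluorescence ratio per cluster is summed target-cycle over summed buffer-cycle Cy3 intensity, averaged per switch-domain sequence. Clusters outside 100-1000 RFU were excluded.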

TTGGGGGGT
switch fluorescence ratio: 1.06 ± 0.012

GGACAAAAAC
switch fluorescence ratio: 1.02 ± 0.013

TTTTTGTCCC
switch fluorescence ratio: 1.04 ± 0.054

TTGGTGGACA
switch fluorescence ratio: 0.976 ± 0.026

TTGTGGAATT
switch fluorescence ratio: 0.966 ± 0.02

TTTCTCATTC
switch fluorescence ratio: 1.08 ± 0.12

TGCCTACGGG
switch fluorescence ratio: 1.02 ± 0.028

AAGTGTGGGG
switch fluorescence ratio: 1 ± 0.025

TTGCAAGAAT
switch fluorescence ratio: 1.023 ± 0.0021

AAAGCGGACT
switch fluorescence ratio: 1.044 ± 0.0089

GGGGAGGCTG
switch fluorescence ratio: 0.971 ± 0.039

GGGGGGTACA
switch fluorescence ratio: 1.01 ± 0.047

AGAGAGGTTA
switch fluorescence ratio: 1.02 ± 0.014

ATAATGGGTA
switch fluorescence ratio: 0.97 ± 0.025

AGGACTCCGT
switch fluorescence ratio: 0.98 ± 0.095

GCTGTTTTCA
switch fluorescence ratio: 0.984 ± 0.048

TGGTTAACGC
switch fluorescence ratio: 0.999 ± 0.013

TGATTTCACG
switch fluorescence ratio: 1.02 ± 0.011

ACAAGTTTTG
switch fluorescence ratio: 1.04 ± 0.0022

TTAGTTTGGG
switch fluorescence ratio: 1.02 ± 0.016

TATCTGTGCT
switch fluorescence ratio: 0.994 ± 0.019

TCCTGGTTTT
switch fluorescence ratio: 0.996 ± 0.046

GGTATAGCGC
switch fluorescence ratio: 1.01 ± 0.051

TTATCGCAGA
switch fluorescence ratio: 1 ± 0.015

TCAAACGCTT
switch fluorescence ratio: 1.12 ± 0.15

ACGGTAAACT
switch fluorescence ratio: 1.18 ± 0.065

AAGTTTGCTA
switch fluorescence ratio: 1.01 ± 0.031

TGGGTGAGGA
switch fluorescence ratio: 1.04 ± 0.054

CGGTATAGTA
switch fluorescence ratio: 0.983 ± 0.032

CACACTCGCT
switch fluorescence ratio: 1.01 ± 0.024

GGGCCTAGGA
switch fluorescence ratio: 1.028 ± 0.0069

CGTCAGGCTT
switch fluorescence ratio: 0.987 ± 0.052

AAAGACGAT
switch fluorescence ratio: 1.01 ± 0.017

CGGGGGTTTC
switch fluorescence ratio: 1.02 ± 0.023

GACATGTGGC
switch fluorescence ratio: 1.03 ± 0.037

TTAAATAGGG
switch fluorescence ratio: 1 ± 0.057

AATCGGTTGG
switch fluorescence ratio: 0.966 ± 0.019

CGTTAATTTA
switch fluorescence ratio: 1.01 ± 0.034

TATTTGGGAT
switch fluorescence ratio: 1 ± 0.002

AACGTCTTTT
switch fluorescence ratio: 0.9826 ± 0.0038

GGTATATAGG
switch fluorescence ratio: 1.01 ± 0.027

TAATCGGGGA
switch fluorescence ratio: 0.984 ± 0.029

ATTGTTTGCA
switch fluorescence ratio: 1.02 ± 0.056

CTAGGTATCA
switch fluorescence ratio: 0.965 ± 0.054

TTAGGGAGAG
switch fluorescence ratio: 0.996 ± 0.016

AAACTCTTGT
switch fluorescence ratio: 1.01 ± 0.0033

CTTGCGGTTC
switch fluorescence ratio: 1.11 ± 0.05

GGATGGCATG
switch fluorescence ratio: 0.979 ± 0.039

AGTATTTTGT
switch fluorescence ratio: 0.974 ± 0.011

GCTTTTGTAT
switch fluorescence ratio: 0.991 ± 0.025

TATCTCTTTT
switch fluorescence ratio: 1.01 ± 0.041

TACGGCAAAT
switch fluorescence ratio: 1.121 ± 0.01

TTAGGCTGCG
switch fluorescence ratio: 1.06 ± 0.1

ATGTAGAGG
switch fluorescence ratio: 0.988 ± 0.013

GGTTAGTGGG
switch fluorescence ratio: 0.998 ± 0.017

TAAAATCATT
switch fluorescence ratio: 0.974 ± 0.035

AGAGAGTTTT
switch fluorescence ratio: 0.984 ± 0.021

CTGTCGTAAA
switch fluorescence ratio: 1.07 ± 0.019

GTTCTTTGT
switch fluorescence ratio: 0.9894 ± 0.0093

GGCTATCGGT
switch fluorescence ratio: 0.978 ± 0.035

TGGGGGTTCG
switch fluorescence ratio: 0.99 ± 0.035

AGGTTAAGGT
switch fluorescence ratio: 1.01 ± 0.02

TGCAACGTTT
switch fluorescence ratio: 0.971 ± 0.024

GAATTATGCC
switch fluorescence ratio: 0.977 ± 0.021

TTCATTTCGT
switch fluorescence ratio: 1 ± 0.024

TAAAGAGGTA
switch fluorescence ratio: 1.02 ± 0.013

GAGGGCTGGG
switch fluorescence ratio: 0.978 ± 0.079

GCATGTCTTG
switch fluorescence ratio: 1 ± 0.028

GAGTCCGTGG
switch fluorescence ratio: 1.1 ± 0.021

TAAATATTAG
switch fluorescence ratio: 0.9837 ± 0.0031

TGTGGAAGGG
switch fluorescence ratio: 0.981 ± 0.019

CGGTATGTAT
switch fluorescence ratio: 1.02 ± 0.042

AGGCGGGTGC
switch fluorescence ratio: 1.04 ± 0.095

TTCCACAGGA
switch fluorescence ratio: 1.15 ± 0.15

AGGGTAGGCC
switch fluorescence ratio: 1.009 ± 0.0019

ATTATTGGTT
switch fluorescence ratio: 1.02 ± 0.029

ATTTAATGAA
switch fluorescence ratio: 0.982 ± 0.021

CCGTTGGACT
switch fluorescence ratio: 1.24 ± 0.067

TCGGGGCAGC
switch fluorescence ratio: 0.998 ± 0.042

GGTCCATTTT
switch fluorescence ratio: 0.969 ± 0.017

TCGAACTGGG
switch fluorescence ratio: 1.007 ± 0.0091

TCGTTTACTT
switch fluorescence ratio: 1.06 ± 0.13

AGATTGTTAG
switch fluorescence ratio: 1.015 ± 0.0027

GAGCGTCTGG
switch fluorescence ratio: 1.02 ± 0.011

GGGAAGATTT
switch fluorescence ratio: 0.992 ± 0.036

GGCGCACTAT
switch fluorescence ratio: 1.22 ± 0.051

GGGAAGACGC
switch fluorescence ratio: 0.978 ± 0.025

GGCAGCCTTT
switch fluorescence ratio: 1.0169 ± 0.00028

CGCTGGAGGG
switch fluorescence ratio: 1.02 ± 0.093

ATAGATGGGG
switch fluorescence ratio: 1.01 ± 0.018

TCCGGGGGGT
switch fluorescence ratio: 1.05 ± 0.025

GGATGTAGCG
switch fluorescence ratio: 0.985 ± 0.051

AAAGCGGGGA
switch fluorescence ratio: 1.04 ± 0.011

GATGCAGCAA
switch fluorescence ratio: 1.22 ± 0.062

TAACAGTAAC
switch fluorescence ratio: 1.08 ± 0.05

TGCGTAAGGG
switch fluorescence ratio: 1.03 ± 0.011

TGTTAGTCCC
switch fluorescence ratio: 0.9897 ± 0.0022

CCTTACAGCT
switch fluorescence ratio: 1.2 ± 0.044

TCGAAAGTCT
switch fluorescence ratio: 0.995 ± 0.012

GAGGGGGCCT
switch fluorescence ratio: 0.989 ± 0.049

CGTTAATTAG
switch fluorescence ratio: 1.02 ± 0.042

ATTGAATTAA
switch fluorescence ratio: 1.04 ± 0.02

GAGGGTCTGT
switch fluorescence ratio: 0.9794 ± 0.0048

GAAGTTGTTT
switch fluorescence ratio: 1.018 ± 0.002

ATTAAATCGG
switch fluorescence ratio: 1.01 ± 0.016

CGGACATGGA
switch fluorescence ratio: 1.011 ± 0.0084

TGATTAAATA
switch fluorescence ratio: 0.994 ± 0.028

AGTCATCACC
switch fluorescence ratio: 1.02 ± 0.023

GATTTTGTGT
switch fluorescence ratio: 0.98 ± 0.043

GATTAGAAGG
switch fluorescence ratio: 1 ± 0.026

GATCCAGCGG
switch fluorescence ratio: 1.02 ± 0.025

TAAGGAGGAG
switch fluorescence ratio: 1 ± 0.013

GCGTGTATGA
switch fluorescence ratio: 1.02 ± 0.033

GCTGGGTCGA
switch fluorescence ratio: 1.03 ± 0.01

TTTTCGTAGC
switch fluorescence ratio: 1.09 ± 0.14

CTTGATTATA
switch fluorescence ratio: 1.007 ± 0.0061

ACGATGTGTT
switch fluorescence ratio: 1.01 ± 0.025

GGAATCAAAC
switch fluorescence ratio: 0.996 ± 0.0094

AAAGAAACAT
switch fluorescence ratio: 1.07 ± 0.08

CGAGTTCCTT
switch fluorescence ratio: 1.02 ± 0.014

CTAAATCGGC
switch fluorescence ratio: 1.03 ± 0.035

GGGGAGGGGT
switch fluorescence ratio: 1.01 ± 0.054

AGGTAAAGGG
switch fluorescence ratio: 0.996 ± 0.04

ACGTTGTGGA
switch fluorescence ratio: 1.027 ± 0.0075

AATCGGCACG
switch fluorescence ratio: 1.01 ± 0.02

TAGTGAAAGT
switch fluorescence ratio: 1.007 ± 0.0071

TGTTGTGTTA
switch fluorescence ratio: 0.9965 ± 5.6e-06

TGGTTGG
switch fluorescence ratio: 0.994 ± 0.0015

TTGGGCGTCG
switch fluorescence ratio: 0.995 ± 0.047

TATACCCTTT
switch fluorescence ratio: 1 ± 0.052

ACGGTATGGG
switch fluorescence ratio: 1.07 ± 0.046

CAGGGGGGCT
switch fluorescence ratio: 1.04 ± 0.057

GGGTGTATTG
switch fluorescence ratio: 1.01 ± 0.044

TACAGATGT
switch fluorescence ratio: 1.028 ± 0.01

TTTCCTATTG
switch fluorescence ratio: 1.01 ± 0.027

CGGAGCAGTT
switch fluorescence ratio: 2.46 ± 0.41

AAGACGTGGA
switch fluorescence ratio: 0.9993 ± 0.0064

TAAGGAGTAG
switch fluorescence ratio: 0.991 ± 0.027

AATATATTTT
switch fluorescence ratio: 0.999 ± 0.047

CGGTAACCTT
switch fluorescence ratio: 1.31 ± 0.44

TAGCGGTTTC
switch fluorescence ratio: 0.9746 ± 0.005

TTTTCGGGGG
switch fluorescence ratio: 1 ± 0.04

GATATTTGAT
switch fluorescence ratio: 0.995 ± 0.042

CTCTGTGCTC
switch fluorescence ratio: 1.35 ± 0.083

GATCGAAGTT
switch fluorescence ratio: 0.984 ± 0.033

AGTTTGCTGG
switch fluorescence ratio: 0.996 ± 0.039

GGGTTTCGCG
switch fluorescence ratio: 1.01 ± 0.023

CATGTGGTGG
switch fluorescence ratio: 0.998 ± 0.039

TTTGTTACTA
switch fluorescence ratio: 1 ± 0.1

TTATCTTGTC
switch fluorescence ratio: 1.03 ± 0.072

ATGGCTGTTT
switch fluorescence ratio: 0.972 ± 0.0012

GTGGAAAAAA
switch fluorescence ratio: 1 ± 0.02

GATTTGGATT
switch fluorescence ratio: 0.993 ± 0.012
